The values that follow come from patent US20210388102A1 (IMMUNOGEN, published 2021).

Assay [1] has as its target T1, His-tagged soluble human ADAM9 (shADAM9-His) (human, UniProt Q13443 206-697).
T1 construct: Contains an extracellular portion of human ADAM9; also called huADAM9-His; His peptide-tagged soluble huADAM9
T1 sequence: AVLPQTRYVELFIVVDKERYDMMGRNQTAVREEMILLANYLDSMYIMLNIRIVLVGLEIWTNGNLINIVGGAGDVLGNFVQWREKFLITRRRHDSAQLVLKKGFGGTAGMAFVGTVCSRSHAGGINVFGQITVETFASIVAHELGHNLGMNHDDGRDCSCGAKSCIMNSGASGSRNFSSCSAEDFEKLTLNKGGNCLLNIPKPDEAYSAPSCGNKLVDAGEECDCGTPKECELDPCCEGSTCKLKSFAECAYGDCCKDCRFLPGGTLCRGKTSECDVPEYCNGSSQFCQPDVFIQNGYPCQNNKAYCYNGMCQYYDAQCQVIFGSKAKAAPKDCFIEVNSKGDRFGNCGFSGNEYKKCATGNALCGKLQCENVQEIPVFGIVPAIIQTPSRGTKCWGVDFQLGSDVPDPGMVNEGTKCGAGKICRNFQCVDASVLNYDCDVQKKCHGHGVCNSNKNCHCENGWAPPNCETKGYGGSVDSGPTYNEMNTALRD
Description: SPR (BIACORE), antibody captured on anti-human Fc, shADAM9-His 6.25-100 nM, 1:1 Langmuir.

In assay [2] the target is T1, His-tagged soluble human ADAM9 …. Description: SPR (BIACORE), antibody captured, huADAM9-His in flow.
For assay [3], the target named is T2, huFcRn (human, UniProt P55899 24-297; P61769 21-119, limits assumed).
T2 construct: source and construct are not described; also called human FcRn
Description: SPR at pH 6.0: 250 nM and 1000 nM huFcRn passed over captured antibody.

The target of assay [4] is T3, cynomolgus monkey ADAM9 (cynoADAM9) on cells (cynomolgus monkey, UniProt Q13443 206-819 (human entry)).
T3 construct: also called Cho-K/cynoADAM9 clone 2; Cho-K/cynoADAM9 clone #16
T3 chain: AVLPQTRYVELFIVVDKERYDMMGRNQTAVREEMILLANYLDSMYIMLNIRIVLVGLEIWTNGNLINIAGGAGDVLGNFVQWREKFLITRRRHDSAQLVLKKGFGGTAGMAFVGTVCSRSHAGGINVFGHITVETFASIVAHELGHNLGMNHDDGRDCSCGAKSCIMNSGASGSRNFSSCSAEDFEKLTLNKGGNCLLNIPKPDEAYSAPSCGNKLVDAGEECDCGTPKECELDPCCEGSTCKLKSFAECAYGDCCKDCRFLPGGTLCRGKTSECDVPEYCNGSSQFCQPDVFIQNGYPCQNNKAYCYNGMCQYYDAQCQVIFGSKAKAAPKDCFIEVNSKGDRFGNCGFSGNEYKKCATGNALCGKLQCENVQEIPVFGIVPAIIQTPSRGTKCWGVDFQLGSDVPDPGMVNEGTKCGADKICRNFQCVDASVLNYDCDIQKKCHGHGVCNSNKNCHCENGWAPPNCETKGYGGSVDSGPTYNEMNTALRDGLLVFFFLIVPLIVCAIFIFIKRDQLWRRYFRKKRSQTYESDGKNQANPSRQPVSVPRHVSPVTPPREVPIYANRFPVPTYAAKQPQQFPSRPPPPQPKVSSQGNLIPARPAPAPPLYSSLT
Description: FACS, EC50 on 300-19 cynoADAM9 cells over EC50 on 300-19 huADAM9 cells.

For assay [5], the target named is T1, His-tagged soluble human ADAM9 …. Description: ELISA: His-tagged soluble huADAM9 (0.5 µg/mL) captured by plate-coated anti-His antibody; serial dilutions of antibody about 0.2-500 ng/mL; abs @450nm.
Assay [6] deals with T4, human ADAM9 (huADAM9) on cells (human, UniProt Q13443 206-819).
T4 construct: The pro-domain is said to be cleaved (Arg-205/Ala-206) in the mature protein; also called Cho-K/huADAM9; Cho-K/hu ADAM9.2
T4 sequence: T3 chain with A69V, H130Q, D421G, I441V, R521S, V546G, P569A
Description: FACS, 300-19 cells expressing human ADAM9.

Assay [7] concerns the target T3, cynomolgus monkey ADAM9 (cynoADAM9) on …. Description: FACS, 300-19 cells expressing cynomolgus ADAM9.
For assay [8], the target named is T2, huFcRn. Description: SPR at pH 6.0: 25 nM and 100 nM antibody passed over immobilized FcRn (species of the FcRn not named in the legend); bivalent analyte.
The target of the next assay is T5, cyno FcRn (cynomolgus monkey, UniProt Q8SPV9 24-297; Q8SPW0 21-119, limits assumed).
T5 construct: source and construct are not described
Description: FcRn binding, method not described.

Assay [9] concerns the target T3, cynomolgus monkey ADAM9 (cynoADAM9) on …. Description: FACS, EC50 on 300-19 cynoADAM9 cells over EC50 on 300-19 huADAM9 cells; Unitless ratio of cyno EC50 to human EC50 by FACS on 300-19 cells.
For assay [10] the target is unchanged. Description: FACS, 300-19 cells expressing cynomolgus ADAM9; FACS, 300-19 cells expressing cynoADAM9, dilution series, 4° C.

Substitutions are numbered along the chain they refer to. Numbers in names are those of the source.

T2 sequence (P55899 24-297 limits assumed, chain 1 of 2): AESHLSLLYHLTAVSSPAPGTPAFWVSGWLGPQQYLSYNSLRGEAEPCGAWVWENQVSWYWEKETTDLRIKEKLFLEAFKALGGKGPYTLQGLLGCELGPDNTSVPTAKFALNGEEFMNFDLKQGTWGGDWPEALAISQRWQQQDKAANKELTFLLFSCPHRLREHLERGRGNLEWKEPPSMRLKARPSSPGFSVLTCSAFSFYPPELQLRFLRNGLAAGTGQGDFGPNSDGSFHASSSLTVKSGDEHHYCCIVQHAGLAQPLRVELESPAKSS
T2 sequence (P61769 21-119 limits assumed, chain 2 of 2): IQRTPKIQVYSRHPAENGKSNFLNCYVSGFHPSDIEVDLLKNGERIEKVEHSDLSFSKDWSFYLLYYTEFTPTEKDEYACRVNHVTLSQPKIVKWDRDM
T5 sequence (Q8SPV9 24-297 limits assumed, chain 1 of 2): as the sequence (P55899 24-297 limits assumed, chain 1 of 2) above, with N39D, E44Q, G99S, S189G, S190N, L217M, S269T counted along it
T5 sequence (Q8SPW0 21-119 limits assumed, chain 2 of 2): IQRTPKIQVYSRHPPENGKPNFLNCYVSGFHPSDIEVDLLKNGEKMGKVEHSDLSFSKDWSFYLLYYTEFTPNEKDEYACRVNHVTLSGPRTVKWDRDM

B1: hMAB-A (2.3) (antibody, V domains shown)
VH: EVQLVESGGGLVKPGGSLRLSCAASGFTFSSYWMHWVRQAPGKGLEWVGEIIPIFGHTNYNEKFKSRFTISLDNSKNTLYLQMGSLRAEDTAVYYCARGGYYYYGSRDYFDYWGQGTTVTVSS
VL: DIVMTQSPDSLAVSLGERATISCRASQSVDYSGDSYMNWYQQKPGQPPKLLIYAASDLESGIPARFSGSGSGTDFTLTISSLEPEDFATYYCQQSHEDPFTFGQGTKLEIK
notes: also called hMAB-A VH(2)/hMAB-A VL(3)
B1 showed a Kd in assay [1] of 1.3 nM.

B2: hMAB-A (4.4) (antibody, V domains shown)
VH: B1 VH with M34I, K63R, K65Q, S66G
VL: B1 VL with M37L, H96Y, E97S, D98T
notes: also called hMAB-A VH(4)/hMAB-A VL(4)
As for B2, in assay [1], the Kd worked out at 2 nM.

B3: hMAB-A (2I.2) (antibody, human IgG1, kappa)
heavy: not shown
light: DIVMTQSPDSLAVSLGERATISCKASQSVDYSGDSYMNWYQQKPGQPPKLLIYAASDLESGIPARFSGSGSGTDFTLTISSLEPEDFATYYCQQSHEDPFTFGQGTKLEIKRTVAAPSVFIFPPSDEQLKSGTASVVCLLNNFYPREAKVQWKVDNALQSGNSQESVTEQDSKDSTYSLSSTLTLSKADYEKHKVYACEVTHQGLSSPVTKSFNRGEC
notes: Kappa light chain, wild-type IgG1 heavy chain constant regions; also called MAB-A VH(2I); MAB-A VH(2I.2)
In assay [2], B3 displayed a Kd of 0.4 nM, a koff of 0.00023 s⁻¹ and a kon of 660000 M⁻¹ s⁻¹. This molecule also returned a Kd with huFcRn [3] of 3400 nM. In assay [4], the “cyno/human (ratio of EC50)” value is 3. In assay [5], the “EC50 (read off the curve)” value is approximately 9 ng/mL. This molecule had a concentration giving a half-maximal response (EC50) in assay [6] of 1.49 nM. The molecule further had an EC50 in [7] of 4.1 nM.

B4: hMAB-A(2I.2)-YTE (antibody, human IgG1, kappa)
heavy: EVQLVESGGGLVKPGGSLRLSCAASGFTFSSYWMHWVRQAPGKGLEWVGEIIPIFGHTNYNEKFKSRFTISLDNSKNTLYLQMGSLRAEDTAVYYCARGGYYYYPRQGFLDYWGQGTTVTVSSASTKGPSVFPLAPSSKSTSGGTAALGCLVKDYFPEPVTVSWNSGALTSGVHTFPAVLQSSGLYSLSSVVTVPSSSLGTQTYICNVNHKPSNTKVDKRVEPKSCDKTHTCPPCPAPELLGGPSVFLFPPKPKDTLYITREPEVTCVVVDVSHEDPEVKFNWYVDGVEVHNAKTKPREEQYNSTYRVVSVLTVLHQDWLNGKEYKCKVSNKALPAPIEKTISKAKGQPREPQVYTLPPSREEMTKNQVSLTCLVKGFYPSDIAVEWESNGQPENNYKTTPPVLDSDGSFFLYSKLTVDKSRWQQGNVFSCSVMHEALHNHYTQKSLSLSPGK
light: B3 light
notes: Last residue X is lysine or absent; also called hMAB-A(2I.2) with the YTE mutation (M252Y, S254T, T256E)
B4: the Kd with huFcRn [3] is 730 nM; in the assay with huFcRn [8], 7.2 nM. Further, in the assay with cyno FcRn, the binding result is on record as “binds”.

B5: hMAB-A (2I.2)(AA) (antibody, human IgG1, kappa, L234A L235A)
heavy: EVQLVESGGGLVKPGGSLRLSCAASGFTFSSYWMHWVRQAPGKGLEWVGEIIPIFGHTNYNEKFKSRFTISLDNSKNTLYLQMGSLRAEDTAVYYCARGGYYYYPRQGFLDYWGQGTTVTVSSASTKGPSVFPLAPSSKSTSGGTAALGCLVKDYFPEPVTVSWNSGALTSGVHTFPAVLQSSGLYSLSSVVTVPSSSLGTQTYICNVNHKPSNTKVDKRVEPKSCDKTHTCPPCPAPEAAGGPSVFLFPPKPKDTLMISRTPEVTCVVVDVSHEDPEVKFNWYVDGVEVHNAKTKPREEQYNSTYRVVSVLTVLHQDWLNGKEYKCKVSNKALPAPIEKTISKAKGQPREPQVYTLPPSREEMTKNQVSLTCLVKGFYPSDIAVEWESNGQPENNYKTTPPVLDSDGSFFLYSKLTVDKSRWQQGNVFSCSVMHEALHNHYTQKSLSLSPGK
light: B3 light
notes: Last residue X is lysine or absent; also called L234A/L235A Fc variant of hMAB-A (2I.2)
In the case of B5, the concentration for a half-maximal effect (EC50 (read off the curve)) in assay [5] was approximately 9 ng/mL.

B6: hMAB-A (2I.2)(AA/C) (antibody)
heavy: B4 heavy with L240A, L241A, Y258M, T260S, E262T, S448C
light: B3 light
notes: Last residue X is lysine or absent; also called L234A/L235A/S442C Fc variant of hMAB-A (2I.2)
For the molecule B6, the 50% effective concentration (EC50 (read off the curve)) in assay [5] was approximately 9 ng/mL.

B7: hMAB-A (2.2) (antibody, human IgG1, kappa, V domains shown)
VH: B1 VH
VL: DIVMTQSPDSLAVSLGERATISCKASQSVDYSGDSYMNWYQQKPGQPPKLLIYAASDLESGIPARFSGSGSGTDFTLTISSLEPEDFATYYCQQSHEDPFTFGQGTKLEIKR
notes: IgG1 kappa; also called huMAB-A(2.2); parental hMAB-A (2.2)
B7: in [2], the Kd is 0.6 nM, the off-rate (koff) came to 0.00055 s⁻¹ and the on-rate constant (kon) is 900000 M⁻¹ s⁻¹. Also, the Kd in assay [1] came to 1.4 nM. Also, the EC50 in assay [6] worked out at 0.69 nM. In assay [9], the “cyno/human (ratio of EC50)” value came out at 47. Also, the midpoint of the response in assay [10], the EC50, lay at 32.7 nM.

B8: hMAB-A(2I.2)-S442C (antibody)
heavy: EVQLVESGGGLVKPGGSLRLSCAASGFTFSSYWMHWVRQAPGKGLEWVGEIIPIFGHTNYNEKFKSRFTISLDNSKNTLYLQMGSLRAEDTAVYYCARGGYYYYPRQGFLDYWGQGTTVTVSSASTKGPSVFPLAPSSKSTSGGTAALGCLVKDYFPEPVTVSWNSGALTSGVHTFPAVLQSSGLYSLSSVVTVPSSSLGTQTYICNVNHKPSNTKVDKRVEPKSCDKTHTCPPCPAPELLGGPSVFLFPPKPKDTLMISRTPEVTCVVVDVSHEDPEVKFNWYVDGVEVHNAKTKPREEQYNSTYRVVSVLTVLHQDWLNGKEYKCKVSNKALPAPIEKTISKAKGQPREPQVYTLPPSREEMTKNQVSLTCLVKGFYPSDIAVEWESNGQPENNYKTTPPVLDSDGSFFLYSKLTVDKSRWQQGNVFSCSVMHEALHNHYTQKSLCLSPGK
light: B3 light
notes: IgG1 kappa with engineered Cys S442C (EU index); also called hMAB-A (2I.2)(C)
On to B8, for which the “cyno/human (ratio of EC50)” value in [4] worked out at 3. Further, the 50% effective concentration (EC50 (read off the curve)) in [5] was approximately 9 ng/mL. In addition, the EC50 in assay [6] was 1.33 nM; in assay [7], 3.8 nM.

B9: chMAB-A (antibody, V domains shown)
VH: QVQLQQPGAELVKPGASVKLSCKASGYTFTSYWMHWVKQRPGQGLEWIGEIIPINGHTNYNEKFKSKATLTLDKSSSTAYMQLSSLASEDSAVYYCARGGYYYYGSRDYFDYWGQGTTLTVSS
VL: DIVLTQSPASLAVSLGQRATISCKASQSVDYDGDSYMNWYQQIPGQPPKLLIYAASDLESGIPARFSGSGSGTDFTLNIHPVEEEDAATYYCQQSHEDPFTFGGGTKLEIK
notes: also called chimeric version of MAB-A; chimeric chMAB-A
Take B9: in assay [4], the “cyno/human (ratio of EC50)” value was found to be 273. Moreover, in assay [1], the Kd turned out to be 3.6 nM. The EC50 in assay [6] turned out to be 0.41 nM; in [7] it was 112 nM.
